The record followed here is patent publication US20260242839A1, “GLYCOSIDE PRODUCT BIOSYNTHESIS AND RECOVERY” (Manus Bio Inc., priority 2023, published 2026).

Assay type in all cases: cell-based, E. coli
Series [1] relates to steviol glycoside. Description: steviol glycoside bioconversion with complemented sucrose synthases in chassis strain. The following applies: chassis strain with UGT SEQ ID NOS: 15 and 25, stevia leaf extract, glucose fed, 37° C., 48 hr, FIG. 3. The text has this:
Strains were created that expressed candidate sucrose synthase enzymes, which may improve UDP-glucose availability when fed sucrose. Expression of a sucrose synthase enables splitting of sucrose into fructose and glucose. Glucose can be funneled towards UDP-glucose biosynthesis. […] Genes were complemented on plasmid. Fold improvement is with respect to total steviol glycoside conversion. Stevia leaf extract, sucrose, and glucose were fed to the bioconversion strains. Bioconversion took place at 37° C. for 48 hr. Data were quantified by reverse phase LC DAD to quantify conversion of steviol glycosides.

Series [2] has as its system steviol glycoside. Description: steviol glycoside bioconversion with overexpressed genes complemented on plasmid. The following applies: chassis strain with UGT SEQ ID NOS: 14 and 24; stevia leaf extract and glucose fed; 37° C., 48 hr; FIG. 2. The procedure:
Other bacterial genes were overexpressed, and bioconversion tested as compared to the chassis strain expressing UGT enzymes of SEQ ID NOS: 14 and 24. […] Fold improvement is with respect to total steviol glycoside conversion. Stevia leaf extract and glucose were fed to the bioconversion strains. Bioconversion took place at 37° C. for 48 hr. Data were quantified by reverse phase LC DAD to quantify conversion of steviol glycosides.

Series [3] has as its system mogrol. The experiment in a line: primary glycosylation at C3 and C24 hydroxyls of mogrol by cells expressing UGT enzymes. As to conditions: mogrol fed; 37° C., 48 hrs; LCMS/MS. The procedure:
Specifically, mogrol was fed to cells expressing various UGT enzymes. Reactions were incubated at 37° C. for 48 hrs. Products were quantified by LCMS/MS with authentic standards of each compound.

“SEQ ID NO: 9: sucrose synthase, Vigna radiate (VrSS1_S11E)”: the “improvement of total steviol glycoside conversion by sucrose synthase” value (from here on “improvement … by sucrose synthase”) in series [1] was “dramatic improvements in glycosylation”.

Take “adk: E. coli adk (adenylate kinase), complemented on plasmid”: in series [2], the “improvement of total steviol glycoside conversion by gene complementation” value (“improvement … by gene complementation” for short) is “improved overall glycosylation”. Regarding “SEQ ID NO: 6: sucrose synthase, Arabidopsis thaliana (AtSus1)”, the “improvement … by sucrose synthase” value in series [1] was “dramatic improvements in glycosylation”. Regarding “SEQ ID NO: 7: sucrose synthase, Arabidopsis thaliana (AtSus3)”, the “improvement … by sucrose synthase” value in series [1] was “dramatic improvements in glycosylation”.

Take “SEQ ID NO: 10: sucrose synthase, Glycine Max (GmSS)”: the “improvement … by sucrose synthase” value in series [1] is “dramatic improvements in glycosylation”. For “SEQ ID NO: 2: sucrose synthase, Solanum tuberosum (StSus2)”, the “improvement … by sucrose synthase” value in series [1] is reported as “dramatic improvements in glycosylation”. Regarding “SEQ ID NO: 8: sucrose synthase, Vigna radiate (VrSS1)”, the “improvement … by sucrose synthase” value in series [1] is on record as “dramatic improvements in glycosylation”. “SEQ ID NO: 3: sucrose synthase, Solanum tuberosum (StSus2_S11E)”: the “improvement … by sucrose synthase” value in series [1] was “dramatic improvements in glycosylation”. As for “SEQ ID NO: 11: sucrose synthase, Glycine Max (GmSS_S11E)”, the “improvement … by sucrose synthase” value in series [1] was “dramatic improvements in glycosylation”.

B1: ugpA: Bifidobacterium bifidum ugpA, complemented on plasmid (protein, listed as Bifidobacterium bifidum)
chain: MAFAEDLKRTEKMTVDDVFEQSAQKMREQGMSEIAISQFRHAYHVWASEKESAWIREDTVEPLHGVRSFHDVYKTIDHDKAVHAFAKTAFLKLNGGLGTSMGLQCAKSLLPVRRHKARQMRFLDIILGQVLTARTRLNVPLPVTFMNSFRTSDDTMKALRHQRKFKQTDIPLEIIQHQEPKIDAATGAPASWPANPDLEWCPPGHGDLFSTLRESGLLDTLLEHGFEYLFISNSDNLGARPSRTLAQYFEDTGAPFMVEVANRTYADRKGGHIVRDTATGRLILREMSQVHPDDKDAAQDIAKHPYFNTNNIWVRIDVLRDMLAEHDGVLPLPVIINNKTVDPIDPQSPAVVQLETAMGAAIGLFEGAICVQVDRMRFLPVKTTNDLFIMRSDRFHLTDSYEMEDGNYIFPNVDLDPRYYKNIEDFNERFPYNVPSLAAANSVSIKGDWTFGRDVIMFADARLEDRNEPSYVPNGEYVGPMGIEPGDWV
Consider B1, for which the “improvement … by gene complementation” value in series [2] is on record as “improved overall glycosylation”.

B2: ndk: E. coli ndk (nucleoside diphosphate kinase), complemented on plasmid (protein, listed as Escherichia coli)
chain: MAIERTFSIIKPNAVAKNVIGNIFARFEAAGFKIVGTKMLHLTVEQARGFYAEHDGKPFFDGLVEFMTSGPIVVSVLEGENAVQRHRDLLGATNPANALAGTLRADYADSLTENGTHGSDSVESAAREIAYFFGEGEVCPRTR
Turning to B2, in series [2], the “improvement … by gene complementation” value is given as “improved overall glycosylation”.

B3: cmk: E. coli cmk (cytidylate kinase), complemented on plasmid (protein, listed as Escherichia coli)
chain: MTAIAPVITIDGPSGAGKGTLCKAMAEALQWHLLDSGAIYRVLALAALHHHVDVASEDALVPLASHLDVRFVSTNGNLEVILEGEDVSGEIRTQEVANAASQVAAFPRVREALLRRQRAFRELPGLIADGRDMGTVVFPDAPVKIFLDASSEERAHRRMLQLQEKGFSVNFERLLAEIKERDDRDRNRAVAPLVPAADALVLDSTTLSIEQVIEKALQYARQKLALA
Take B3: the “improvement … by gene complementation” value in series [2] is “improved overall glycosylation”.

B4: pgm: E. coli pgm (phosphoglucomutase), complemented on plasmid (protein, listed as Escherichia coli)
chain: MAIHNRAGQPAQQSDLINVAQLTAQYYVLKPEAGNAEHAVKFGTSGHRGSAARHSFNEPHILAIAQAIAEERAKNGITGPCYVGKDTHALSEPAFISVLEVLAANGVDVIVQENNGFTPTPAVSNAILVHNKKGGPLADGIVITPSHNPPEDGGIKYNPPNGGPADTNVTKVVEDRANALLADGLKGVKRISLDEAMASGHVKEQDLVQPFVEGLADIVDMAAIQKAGLTLGVDPLGGSGIEYWKRIGEYYNLNLTIVNDQVDQTFRFMHLDKDGAIRMDCSSECAMAGLLALRDKFDLAFANDPDYDRHGIVTPAGLMNPNHYLAVAINYLFQHRPQWGKDVAVGKTLVSSAMIDRVVNDLGRKLVEVPVGFKWFVDGLFDGSFGFGGEESAGASFLRFDGTPWSTDKDGIIMCLLAAEITAVTGKNPQEHYNELAKRFGAPSYNRLQAAATSAQKAALSKLSPEMVSASTLAGDPITARLTAAPGNGASIGGLKVMTDNGWFAARPSGTEDAYKIYCESFLGEEHRKQIEKEAVEIVSEVLKNA
For B4, in series [2], the “improvement … by gene complementation” value was “improved overall glycosylation”.

B5: pgm-galU: pgm and galU (SEQ ID NOS: 92 and 93) complemented together on plasmid (protein, listed as Escherichia coli)
chain 1: B4 chain
chain 2: MAAINTKVKKAVIPVAGLGTRMLPATKAIPKEMLPLVDKPLIQYVVNECIAAGITEIVLVTHSSKNSIENHFDTSFELEAMLEKRVKRQLLDEVQSICPPHVTIMQVRQGLAKGLGHAVLCAHPVVGDEPVAVILPDVILDEYESDLSQDNLAEMIRRFDETGHSQIMVEPVADVTAYGVVDCKGVELAPGESVPMVGVVEKPKADVAPSNLAIVGRYVLSADIWPLLAKTPPGAGDEIQLTDAIDMLIEKETVEAYHMKGKSHDCGNKLGYMQAFVEYGIRHNTLGTEFKAWLEEEMGIKK
For B5, in series [2], the “improvement … by gene complementation” value is “improved overall glycosylation”.

B6: galU: E. coli galU (UTP-glucose-1-phosphate uridylyltransferase), complemented on plasmid (protein, listed as Escherichia coli)
chain: B5 chain 2
Take B6: the “improvement … by gene complementation” value in series [2] was “improved overall glycosylation”.

B7: ycjU: E. coli ycjU (β-phosphoglucomutase), complemented on plasmid (protein, listed as Escherichia coli)
chain: MKLQGVIFDLDGVITDTAHLHFQAWQQIAAEIGISIDAQFNESLKGISRDESLRRILQHGGKEGDFNSQERAQLAYRKNLLYVHSLRELTVNAVLPGIRSLLADLRAQQISVGLASVSLNAPTILAALELREFFTFCADASQLKNSKPDPEIFLAACAGLGVPPQACIGIEDAQAGIDAINASGMRSVGIGAGLTGAQLLLPSTESLTWPRLSAFWQNV
As for B7, the “improvement … by gene complementation” value in series [2] is listed as “improved overall glycosylation”.

B8: SEQ ID NO: 46: CmaUGT1 (Cucurbita maxima) (protein, listed as Cucurbita maxima)
chain: MELSHTHHVLLFPFPAKGHIKPFFSLAQLLCNAGLRVTFLNTDHHHRRIHDLNRLAAQLPTLHFDSVSDGLPPDEPRNVFDGKLYESIRQVTSSLFRELLVSYNNGTSSGRPPITCVITDVMFRFPIDIAEELGIPVFTFSTFSARFLFLIFWIPKLLEDGQLRYPEQELHGVPGAEGLIRWKDLPGFWSVEDVADWDPMNFVNQTLATSRSSGLILNTFDELEAPFLTSLSKIYKKIYSLGPINSLLKNFQSQPQYNLWKEDHSCMAWLDSQPRKSVVFVSFGSVVKLTSRQLMEFWNGLVNSGMPFLLVLRSDVIEAGEEVVREIMERKAEGRWVIVSWAPQEEVLAHDAVGGFLTHSGWNSTLESLAAGVPMISWPQIGDQTSNSTWISKVWRIGLQLEDGFDSSTIETMVRSIMDQTMEKTVAELAERAKNRASKNGTSYRNFQTLIQDITNIIETHI
For the molecule B8, in series [3], the “C3 O-Glucosylation” value was “Yes” and the “C24 O-Glucosylation” value is “No”.
